Assay results as given in article PMC6822712.

Experiments:
TrkC (rat) (rat) = TrkC (rat) (rat) (UniProt Q03351)
TrkB (rat) (rat) = TrkB (rat) (rat) (UniProt Q63604)
TrkB (human) (human) = TrkB (human) (human) (UniProt Q16620)
TrkC (human) (human) = TrkC (human) (human) (UniProt Q16288)
TrkA (human) (human) = TrkA (human) (human) (UniProt P04629)
UniProt P04629, sequence (P04629 33-796): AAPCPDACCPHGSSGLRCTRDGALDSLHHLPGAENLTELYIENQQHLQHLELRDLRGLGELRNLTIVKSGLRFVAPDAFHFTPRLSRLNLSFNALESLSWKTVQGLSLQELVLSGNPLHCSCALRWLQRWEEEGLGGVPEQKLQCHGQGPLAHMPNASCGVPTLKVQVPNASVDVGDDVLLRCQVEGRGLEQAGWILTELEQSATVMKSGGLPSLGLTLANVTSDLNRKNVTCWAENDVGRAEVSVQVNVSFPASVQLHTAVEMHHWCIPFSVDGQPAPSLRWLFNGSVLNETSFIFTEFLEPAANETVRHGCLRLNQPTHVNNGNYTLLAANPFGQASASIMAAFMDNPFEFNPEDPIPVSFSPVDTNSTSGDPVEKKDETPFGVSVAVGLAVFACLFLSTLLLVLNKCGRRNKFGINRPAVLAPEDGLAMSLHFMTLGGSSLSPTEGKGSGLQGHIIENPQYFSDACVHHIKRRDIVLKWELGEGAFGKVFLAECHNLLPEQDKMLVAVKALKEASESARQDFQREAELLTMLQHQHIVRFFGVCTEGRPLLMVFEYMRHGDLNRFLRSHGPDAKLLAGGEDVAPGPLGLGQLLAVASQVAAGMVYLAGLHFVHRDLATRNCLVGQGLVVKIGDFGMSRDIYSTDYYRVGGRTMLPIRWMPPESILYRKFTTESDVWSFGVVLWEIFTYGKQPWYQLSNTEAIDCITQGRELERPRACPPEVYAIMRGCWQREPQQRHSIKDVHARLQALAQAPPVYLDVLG

UniProt Q16620, sequence (Q16620 32-822): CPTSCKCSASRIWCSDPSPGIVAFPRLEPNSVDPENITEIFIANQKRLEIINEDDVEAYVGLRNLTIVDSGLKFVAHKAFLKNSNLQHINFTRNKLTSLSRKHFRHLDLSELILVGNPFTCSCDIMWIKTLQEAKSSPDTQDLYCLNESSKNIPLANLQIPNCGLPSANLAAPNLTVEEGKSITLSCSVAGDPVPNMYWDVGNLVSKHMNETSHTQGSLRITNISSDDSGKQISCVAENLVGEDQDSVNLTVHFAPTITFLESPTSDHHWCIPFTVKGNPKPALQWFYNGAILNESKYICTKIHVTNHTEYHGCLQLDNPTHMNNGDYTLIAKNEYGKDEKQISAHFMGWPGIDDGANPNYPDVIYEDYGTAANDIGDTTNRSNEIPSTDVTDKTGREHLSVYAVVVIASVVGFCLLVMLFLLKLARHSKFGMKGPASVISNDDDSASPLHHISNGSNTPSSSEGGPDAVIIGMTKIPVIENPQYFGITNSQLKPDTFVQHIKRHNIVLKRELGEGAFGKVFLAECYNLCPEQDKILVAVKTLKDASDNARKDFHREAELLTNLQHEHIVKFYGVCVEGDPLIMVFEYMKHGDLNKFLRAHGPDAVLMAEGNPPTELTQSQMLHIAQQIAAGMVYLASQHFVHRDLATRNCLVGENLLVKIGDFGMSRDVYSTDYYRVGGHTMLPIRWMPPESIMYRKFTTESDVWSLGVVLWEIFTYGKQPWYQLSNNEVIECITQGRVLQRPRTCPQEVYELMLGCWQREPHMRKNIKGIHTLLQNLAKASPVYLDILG
UniProt Q03351, sequence (Q03351 32-864): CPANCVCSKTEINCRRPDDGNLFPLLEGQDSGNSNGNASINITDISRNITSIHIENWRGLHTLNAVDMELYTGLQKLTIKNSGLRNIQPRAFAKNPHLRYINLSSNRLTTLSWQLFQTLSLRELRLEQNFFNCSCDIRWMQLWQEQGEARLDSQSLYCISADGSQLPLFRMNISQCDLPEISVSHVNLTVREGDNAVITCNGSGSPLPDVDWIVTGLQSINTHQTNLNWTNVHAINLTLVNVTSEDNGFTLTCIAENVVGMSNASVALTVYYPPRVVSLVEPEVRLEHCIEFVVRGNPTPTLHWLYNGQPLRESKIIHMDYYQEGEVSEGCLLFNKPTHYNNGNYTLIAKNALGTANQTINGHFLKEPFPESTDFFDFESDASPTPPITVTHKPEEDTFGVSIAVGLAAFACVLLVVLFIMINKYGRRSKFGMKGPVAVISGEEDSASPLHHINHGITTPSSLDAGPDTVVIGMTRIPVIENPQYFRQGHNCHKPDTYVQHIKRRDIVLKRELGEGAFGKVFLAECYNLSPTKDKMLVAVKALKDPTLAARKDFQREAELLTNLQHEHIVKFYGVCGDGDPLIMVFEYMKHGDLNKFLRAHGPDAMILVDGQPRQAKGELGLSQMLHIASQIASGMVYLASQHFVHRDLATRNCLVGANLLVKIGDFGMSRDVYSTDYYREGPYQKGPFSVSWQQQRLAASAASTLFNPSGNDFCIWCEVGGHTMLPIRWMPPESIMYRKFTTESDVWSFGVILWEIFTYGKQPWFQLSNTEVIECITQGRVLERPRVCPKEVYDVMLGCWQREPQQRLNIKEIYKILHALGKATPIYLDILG
UniProt Q63604, sequence (Q63604 32-821): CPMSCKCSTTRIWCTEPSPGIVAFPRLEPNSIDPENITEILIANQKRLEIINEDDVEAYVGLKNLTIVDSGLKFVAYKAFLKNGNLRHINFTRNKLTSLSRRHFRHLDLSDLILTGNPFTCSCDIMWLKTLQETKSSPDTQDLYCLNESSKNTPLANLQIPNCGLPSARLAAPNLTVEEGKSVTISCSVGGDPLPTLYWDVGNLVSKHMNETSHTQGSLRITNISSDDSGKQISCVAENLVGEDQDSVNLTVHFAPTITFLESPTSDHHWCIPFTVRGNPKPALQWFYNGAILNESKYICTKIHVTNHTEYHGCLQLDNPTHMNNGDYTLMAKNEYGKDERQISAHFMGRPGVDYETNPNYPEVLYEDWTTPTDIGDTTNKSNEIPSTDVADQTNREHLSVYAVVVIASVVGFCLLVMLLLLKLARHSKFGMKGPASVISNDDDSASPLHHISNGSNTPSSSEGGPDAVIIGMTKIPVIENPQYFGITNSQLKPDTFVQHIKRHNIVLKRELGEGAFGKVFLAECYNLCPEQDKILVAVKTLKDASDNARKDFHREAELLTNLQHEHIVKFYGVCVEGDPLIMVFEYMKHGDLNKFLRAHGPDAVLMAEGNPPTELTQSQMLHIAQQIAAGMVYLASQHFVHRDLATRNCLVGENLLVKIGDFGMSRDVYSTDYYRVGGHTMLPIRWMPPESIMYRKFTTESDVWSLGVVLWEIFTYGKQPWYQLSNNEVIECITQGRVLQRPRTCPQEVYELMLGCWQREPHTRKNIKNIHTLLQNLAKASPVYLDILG
UniProt Q16288, sequence (Q16288 32-839): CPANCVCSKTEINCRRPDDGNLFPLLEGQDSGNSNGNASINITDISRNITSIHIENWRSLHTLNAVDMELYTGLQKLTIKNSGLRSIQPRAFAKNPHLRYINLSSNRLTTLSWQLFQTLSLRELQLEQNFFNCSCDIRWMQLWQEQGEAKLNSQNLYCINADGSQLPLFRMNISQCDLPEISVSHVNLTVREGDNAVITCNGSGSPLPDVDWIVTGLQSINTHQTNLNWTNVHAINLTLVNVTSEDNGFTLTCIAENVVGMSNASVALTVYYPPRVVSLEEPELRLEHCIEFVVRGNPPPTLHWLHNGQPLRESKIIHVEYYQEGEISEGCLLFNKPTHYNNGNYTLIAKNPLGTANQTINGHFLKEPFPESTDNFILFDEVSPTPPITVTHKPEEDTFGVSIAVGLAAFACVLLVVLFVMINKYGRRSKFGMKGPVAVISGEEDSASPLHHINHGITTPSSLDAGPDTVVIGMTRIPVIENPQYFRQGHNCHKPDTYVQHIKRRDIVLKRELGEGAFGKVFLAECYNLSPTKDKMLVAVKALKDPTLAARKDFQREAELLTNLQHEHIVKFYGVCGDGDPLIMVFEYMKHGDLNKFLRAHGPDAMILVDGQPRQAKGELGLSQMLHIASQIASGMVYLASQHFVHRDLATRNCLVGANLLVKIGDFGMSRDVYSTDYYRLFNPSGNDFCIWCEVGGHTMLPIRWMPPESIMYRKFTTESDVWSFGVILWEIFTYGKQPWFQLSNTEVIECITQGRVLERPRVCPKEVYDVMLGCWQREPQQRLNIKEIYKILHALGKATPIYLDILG

EC50 of ERK phosphorylation (phospho-ERK AlphaLISA), NIH3T3 cells stably expressing rat TrkC (TrkC (rat) (rat)) | Max (%) of ERK phosphorylation (phospho-ERK AlphaLISA), relative to 10nM NT-3, NIH3T3 cells stably expressing rat TrkC (TrkC (rat) (rat)) | EC50 of ERK phosphorylation (phospho-ERK AlphaLISA), HEK293 cells stably expressing rat TrkB (TrkB (rat) (rat)) | Max (%) of ERK phosphorylation (phospho-ERK AlphaLISA), relative to 10nM BDNF, HEK293 cells stably expressing rat TrkB (TrkB (rat) (rat)) | EC50 of ERK phosphorylation (phospho-ERK AlphaLISA), HEK293 cells stably expressing human TrkB (TrkB (human) (human)) | Max (%) of ERK phosphorylation (phospho-ERK AlphaLISA), relative to 10nM BDNF, HEK293 cells stably expressing human TrkB (TrkB (human) (human)) | EC50 of ERK phosphorylation (phospho-ERK AlphaLISA), NIH3T3 cells stably expressing human TrkC (TrkC (human) (human)) | Max (%) of ERK phosphorylation (phospho-ERK AlphaLISA), relative to 10nM NT-3, NIH3T3 cells stably expressing human TrkC (TrkC (human) (human)) | EC50 of ERK phosphorylation (phospho-ERK AlphaLISA), NIH3T3 cells expressing human TrkA; no response (TrkA (human) (human)) | EC50 of ERK phosphorylation (phospho-ERK AlphaLISA), NIH3T3 cells expressing human TrkA (TrkA (human) (human)) | Max (%) of ERK phosphorylation (phospho-ERK AlphaLISA), NIH3T3 cells expressing human TrkA (TrkA (human) (human)) | Molecule
4.97 nM | 76.2% | 0.19 nM | 104% | 0.68 nM | 114% | 26.8 nM | 104% | > 100 nM | – | – | BDNF (ligand)
0.21 nM | 103% | 10.7 nM | 83% | 2.05 nM | 58.5% | 0.4 nM | 106% | – | 4.35 nM | 73.6% | NT-3 (ligand) YAEHKSHRGEYSVCDSESLWVTDKSSAIDIRGHQVTVLGEIKTGNSPVKQYFYETRCKEARPVKNGCRGIDDKHWNSQCKTSQTYVRALTSENNKLVGWRWIRIDTSCVCALSRKIGRT
